Source: patent US20180030151A1 (MOGAM INSTITUTE FOR BIOMEDICAL RESEARCH, published 2018)
Substitutions are numbered along the chain they refer to. Read-outs that look alike come from different tables or passages of the source. Blank lines part the entries; values can stand above or below the binder they belong to.

Legend:
Experiment in all cases: cell-based or functional assay
[1] = biological target: T1, recombinant human TFPI (tissue factor pathway inhibitor) (human, UniProt P10646 29-304)
[2] = biological target: T1, recombinant human TFPI (tissue factor …); remark: listed apart in the source
[3] = biological target: T1, recombinant human TFPI (tissue factor …); remark: listed apart in the source
[4] = biological target: T1, recombinant human TFPI (tissue factor …); remark: listed apart in the source
[5] = biological target: T1, recombinant human TFPI (tissue factor …); remark: listed apart in the source
[6] = biological target: T1, recombinant human TFPI (tissue factor …); remark: listed apart in the source
[7] = biological target: T1, recombinant human TFPI (tissue factor …); remark: listed apart in the source
[8] = biological target: T1, recombinant human TFPI (tissue factor …); remark: listed apart in the source
[9] = biological target: T1, recombinant human TFPI (tissue factor …); remark: listed apart in the source
[10] = biological target: T1, recombinant human TFPI (tissue factor …); remark: listed apart in the source
[11] = biological target: T1, recombinant human TFPI (tissue factor …); remark: listed apart in the source

effect of inhibiting TFPI, FXa activity assay, Ab 10 nM [1]: ~79%
effect of inhibiting TFPI, FXa activity assay, Ab 20 nM [1]: ~76%
A405, TF/FVIIa/FX complex assay (FX 5 nM), Ab 1.56 nM [2]: 0.045
A405, TF/FVIIa/FX complex assay (FX 5 nM), Ab 3.13 nM [2]: 0.045
A405, TF/FVIIa/FX complex assay (FX 5 nM), Ab 6.25 nM [2]: 0.052
A405, TF/FVIIa/FX complex assay (FX 5 nM), Ab 12.5 nM [2]: 0.083
A405, TF/FVIIa/FX complex assay (FX 5 nM), Ab 25 nM [2]: 0.416
A405, TF/FVIIa/FX complex assay (FX 5 nM), Ab 50 nM [2]: 0.735
A405, TF/FVIIa/FX complex assay (FX 5 nM), Ab 100 nM [2]: 0.835
% of Normalized, TF/FVIIa/FX complex assay (FX 5 nM), Ab 1.56 nM [3]: 5.5%
% of Normalized, TF/FVIIa/FX complex assay (FX 5 nM), Ab 3.13 nM [3]: 5.6%
% of Normalized, TF/FVIIa/FX complex assay (FX 5 nM), Ab 6.25 nM [3]: 6.4%
% of Normalized, TF/FVIIa/FX complex assay (FX 5 nM), Ab 12.5 nM [3]: 10.3%
% of Normalized, TF/FVIIa/FX complex assay (FX 5 nM), Ab 25 nM [3]: 51.4%
% of Normalized, TF/FVIIa/FX complex assay (FX 5 nM), Ab 50 nM [3]: 90.9%
% of Normalized, TF/FVIIa/FX complex assay (FX 5 nM), Ab 100 nM [3]: 103%
FXa assay % of FXa alone, 2.5 nM Ab, 10 nM TFPI [4]: 8.2%
FXa assay % of FXa alone, 5 nM Ab, 10 nM TFPI [4]: 45.3%
FXa assay OD, 2.5 nM Ab, 10 nM TFPI [4]: 0.0625
FXa assay OD, 5 nM Ab, 10 nM TFPI [4]: 0.345
FXa assay OD, 10 nM Ab, 10 nM TFPI [4]: 0.602
FXa assay OD, 20 nM Ab, 10 nM TFPI [4]: 0.58
FXa assay % of FXa alone, 2.5 nM Ab, 10 nM TFPI [5]: 7.3%
FXa assay % of FXa alone, 5 nM Ab, 10 nM TFPI [5]: 32.8%
FXa assay % of FXa alone, 10 nM Ab, 10 nM TFPI [5]: 76.5%
FXa assay % of FXa alone, 20 nM Ab, 10 nM TFPI [5]: 87.2%
FXa assay OD, 2.5 nM Ab, 10 nM TFPI [5]: 0.0605
FXa assay OD, 5 nM Ab, 10 nM TFPI [5]: 0.271
FXa assay OD, 10 nM Ab, 10 nM TFPI [5]: 0.632
FXa assay OD, 20 nM Ab, 10 nM TFPI [5]: 0.721
B1: clone 2 (antibody, V domains shown)
VH: EVQLVESGGGLVKPGGSLRLSCAASGFTFSSYAMNWVRQAPGKGLEWVSTITTGGSYTYYADSVEGRFTISRDNAKNSLYLQMNSLRAEDTAVYYCARQDGNFLMDYWGQGTLVTVSS
VL: DVVMTQTPLSLPVTLGQPASISCKSSPSLLDIDGKTYLNWLQQRPGQSPKRLIYLVSKLDSGVPDRFTGSGSGTDFTLKISRVEAEDVGVYYCWQGTHFPFTFGQGTKVEIKR

effect of inhibiting TFPI, FXa activity assay, Ab 10 nM [1]: ~69%
effect of inhibiting TFPI, FXa activity assay, Ab 20 nM [1]: ~88%
A405, TF/FVIIa/FX complex assay, Ab 1.56 nM [6]: 0.14
A405, TF/FVIIa/FX complex assay, Ab 3.13 nM [6]: 0.151
A405, TF/FVIIa/FX complex assay, Ab 6.25 nM [6]: 0.15
A405, TF/FVIIa/FX complex assay, Ab 12.5 nM [6]: 0.157
A405, TF/FVIIa/FX complex assay, Ab 25 nM [6]: 0.272
A405, TF/FVIIa/FX complex assay, Ab 50 nM [6]: 0.77
A405, TF/FVIIa/FX complex assay, Ab 100 nM [6]: 0.905
% of Normalized, TF/FVIIa/FX complex assay, Ab 1.56 nM [7]: 14.7%
% of Normalized, TF/FVIIa/FX complex assay, Ab 3.13 nM [7]: 15.8%
% of Normalized, TF/FVIIa/FX complex assay, Ab 6.25 nM [7]: 15.7%
% of Normalized, TF/FVIIa/FX complex assay, Ab 12.5 nM [7]: 16.4%
% of Normalized, TF/FVIIa/FX complex assay, Ab 25 nM [7]: 28.5%
% of Normalized, TF/FVIIa/FX complex assay, Ab 50 nM [7]: 80.7%
% of Normalized, TF/FVIIa/FX complex assay, Ab 100 nM [7]: 94.8%
FXa assay % of FXa alone, 2.5 nM Ab, 10 nM TFPI [8]: 6.5%
FXa assay % of FXa alone, 5 nM Ab, 10 nM TFPI [8]: 14.7%
FXa assay OD, 2.5 nM Ab, 10 nM TFPI [8]: 0.0315
FXa assay OD, 5 nM Ab, 10 nM TFPI [8]: 0.071
FXa assay OD, 10 nM Ab, 10 nM TFPI [8]: 0.332
FXa assay OD, 20 nM Ab, 10 nM TFPI [8]: 0.424
B2: clone 1123 (antibody, V domains shown)
VH: B1 VH with Y57H, N102H
VL: B1 VL with P27Q

effect of inhibiting TFPI, FXa activity assay, Ab 10 nM [1]: ~71%
effect of inhibiting TFPI, FXa activity assay, Ab 20 nM [1]: ~83%
A405, TF/FVIIa/FX complex assay, Ab 1.56 nM [9]: 0.141
A405, TF/FVIIa/FX complex assay, Ab 3.13 nM [9]: 0.148
A405, TF/FVIIa/FX complex assay, Ab 6.25 nM [9]: 0.158
A405, TF/FVIIa/FX complex assay, Ab 12.5 nM [9]: 0.179
A405, TF/FVIIa/FX complex assay, Ab 25 nM [9]: 0.269
A405, TF/FVIIa/FX complex assay, Ab 50 nM [9]: 0.919
A405, TF/FVIIa/FX complex assay, Ab 100 nM [9]: 0.944
% of Normalized, TF/FVIIa/FX complex assay, Ab 1.56 nM [10]: 15.4%
% of Normalized, TF/FVIIa/FX complex assay, Ab 3.13 nM [10]: 16.1%
% of Normalized, TF/FVIIa/FX complex assay, Ab 6.25 nM [10]: 17.2%
% of Normalized, TF/FVIIa/FX complex assay, Ab 12.5 nM [10]: 19.4%
% of Normalized, TF/FVIIa/FX complex assay, Ab 25 nM [10]: 29.3%
% of Normalized, TF/FVIIa/FX complex assay, Ab 50 nM [10]: 100%
% of Normalized, TF/FVIIa/FX complex assay, Ab 100 nM [10]: 103%
FXa assay % of FXa alone, 2.5 nM Ab, 10 nM TFPI [11]: 6.5%
FXa assay % of FXa alone, 5 nM Ab, 10 nM TFPI [11]: 14%
FXa assay OD, 2.5 nM Ab, 10 nM TFPI [11]: 0.0465
FXa assay OD, 5 nM Ab, 10 nM TFPI [11]: 0.101
FXa assay OD, 10 nM Ab, 10 nM TFPI [11]: 0.512
FXa assay OD, 20 nM Ab, 10 nM TFPI [11]: 0.594
B3: clone 1015 (antibody, V domains shown)
VH: B1 VH with Y57H
VL: B1 VL with P27Q
